This is an account of results in article PMC3627646.

For assay [1], the target named is Ankyrin2, large isoform (Ank2-L) (Drosophila (endogenous in larval brain)).
Assay [2] addresses Ank2-S–EGFP (short isoform of Ank2 containing all potential Nrg interacting domains) (Drosophila). The assay is described as follows: co-IP; S2 cells co-transfected with act5C–Gal4, UAS–Ank2-S–EGFP and UAS–Nrg–3xHA; IP of Nrg180-HA proteins using Ank2-S–GFP; blots with anti-HA and anti-GFP; four independent IPs quantified (Odyssey2.1).
The target in assay [3] is Ankyrin2, large isoform (Ank2-L) (Drosophila (endogenous in larval brain)). This is another data set of the same source.

Where only a bound is given, the exact number is not on record here.

“Nrg180-HA Y-A (tyrosine of the FIGQY motif replaced with alanine) (from UniProt P20241-1 24-1302) (natural protein)” gave an FRAP of GFP-tagged Nrg180^Y-A in motoneurons in vivo (ok371–Gal4): mobility against wild type (fold against wild type) in assay [1] greater than 1.5. This molecule returned a decrease in binding capacities compared to wild-type in assay [2] of 90%. In assay [1], “Nrg180-HA Y-D (tyrosine of the FIGQY motif replaced with aspartate) (from UniProt P20241-1 24-1302) (natural protein)” displayed an FRAP of GFP-tagged Nrg180^Y-D in motoneurons in vivo (ok371–Gal4): mobility against wild type (fold against wild type) greater than 1.5. The same molecule showed a decrease in binding capacities compared to wild-type in assay [2] of 70%. The molecule “Nrg180-HA Y-F (tyrosine of the FIGQY motif replaced with phenylalanine) (from UniProt P20241-1 24-1302) (natural protein)” registered an FRAP of GFP-tagged Nrg180^Y-F in motoneurons in vivo (ok371–Gal4): mobility against wild type (fold against wild type) in assay [1] greater than 1.5. Besides, the decrease in binding capacities compared to wild-type in assay [2] turned out to be 30%. For “Nrg180-HA ΔFIGQY (entire FIGQY motif deleted) (from UniProt P20241-1 24-1302) (natural protein)”, the FRAP of GFP-tagged Nrg180^ΔFIGQY in motoneurons in vivo (ok371–Gal4): mobile fraction in assay [3] amounted to 80%.

B1: Nrg180-HA, wild type (UAS–Nrg–3xHA) (natural protein)
chain: KGNRPPRITKQPAPGELLFKVAQQNKESDNPFIIECEADGQPEPEYSWIKNGKKFDWQAYDNRMLRQPGRGTLVITIPKDEDRGHYQCFASNEFGTATSNSVYVRKAELNAFKDEAAKTLEAVEGEPFMLKCAAPDGFPSPTVNWMIQESIDGSIKSINNSRMTLDPEGNLWFSNVTREDASSDFYYACSATSVFRSEYKIGNKVLLDVKQMGVSASQNKHPPVRQYVSRRQSLALRGKRMELFCIYGGTPLPQTVWSKDGQRIQWSDRITQGHYGKSLVIRQTNFDDAGTYTCDVSNGVGNAQSFSIILNVNSVPYFTKEPEIATAAEDEEVVFECRAAGVPEPKISWIHNGKPIEQSTPNPRRTVTDNTIRIINLVKGDTGNYGCNATNSLGYVYKDVYLNVQAEPPTISEAPAAVSTVDGRNVTIKCRVNGSPKPLVKWLRASNWLTGGRYNVQANGDLEIQDVTFSDAGKYTCYAQNKFGEIQADGSLVVKEHTRITQEPQNYEVAAGQSATFRCNEAHDDTLEIEIDWWKDGQSIDFEAQPRFVKTNDNSLTIAKTMELDSGEYTCVARTRLDEATARANLIVQDVPNAPKLTGITCQADKAEIHWEQQGDNRSPILHYTIQFNTSFTPASWDAAYEKVPNTDSSFVVQMSPWANYTFRVIAFNKIGASPPSAHSDSCTTQPDVPFKNPDNVVGQGTEPNNLVISWTPMPEIEHNAPNFHYYVSWKRDIPAAAWENNNIFDWRQNNIVIADQPTFVKYLIKVVAINDRGESNVAAEEVVGYSGEDRPLDAPTNFTMRQITSSTSGYMAWTPVSEESVRGHFKGYKIQTWTENEGEEGLREIHVKGDTHNALVTQFKPDSKNYARILAYNGRFNGPPSAVIDFDTPEGVPSPVQGLDAYPLGSSAFMLHWKKPLYPNGKLTGYKIYYEEVKESYVGERREYDPHITDPRVTRMKMAGLKPNSKYRISITATTKMGEGSEHYIEKTTLKDAVNVAPATPSFSWEQLPSDNGLAKFRINWLPSTEGHPGTHFFTMHRIKGETQWIRENEEKNSDYQEVGGLDPETAYEFRVVSVDGHFNTESATQEIDTNTVEGPIMVANETVANAGWFIGMMLALAFIIILFIIICIIRRNRGGKYDVHDRELANGRRDYPEEGGFHEYSQPLDNKSAGRQSVSSANKPGVESDTDSMAEYGDGDTGQFTEDGSFIGQYVPGKLQPPVSPQPLNNSAAAHQAAPTAGGSGAAGSAAAAGASGGASSAGGAAASNGGAAAGAVATYV
In the case of B1, the FRAP of GFP-tagged Nrg180 in motoneurons in vivo (ok371–Gal4): mobile fraction (% of total protein) in assay [3] was 40.
